# Results: PMC6118392, “VapC proteins from Mycobacterium tuberculosis share ribonuclease sequence specificity but differ in regulation and toxicity” (PLoS ONE, 2018)
# T1: VapB29;VapC29 (Mycobacterium tuberculosis …, UniProt P9WJ37;P9WF79 1-75;1-133, |)
# T1 sequence 1: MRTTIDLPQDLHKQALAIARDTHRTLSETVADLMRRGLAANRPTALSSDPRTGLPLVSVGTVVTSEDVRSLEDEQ
# T1 sequence 2: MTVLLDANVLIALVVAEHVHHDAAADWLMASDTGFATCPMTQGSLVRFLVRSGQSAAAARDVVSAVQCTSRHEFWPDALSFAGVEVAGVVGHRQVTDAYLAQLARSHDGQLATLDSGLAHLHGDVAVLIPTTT
# B1: VapBC39 heterodimer (complex)
# chain 1: MRTTLQIDDDVLEDARSIARSEGKSVGAVISELARRSLRPVGIVEVDGFPVFDVPPDAPTVTSEDVVRALEDDV
# chain 2: MTALLDVNVLIALGWPNHVHHAAAQRWFTQFSSNGWATTPITEAGYVRISSNRSVMQVSTTPAIAIAQLAAMTSLAGHTFWPDDVPLIVGSAGDRDAVSNHRRVTDCHLIALAARYGGRLVTFDAALADSASAGLVEVL
# notes: VapB39 antitoxin of Mycobacterium tuberculosis, gene Rv2530a; as m9; VapC39 toxin of Mycobacterium tuberculosis, gene Rv2530c; as m10; also called Rv2530a/Rv2530c
# B2: VapBC19 heterodimer (complex)
# chain 1: MRTQVTLGKEELELLDRAAKASGASRSELIRRAIHRAYGTGSKQERLAALDHSRGSWRGRDFTGTEYVDAIRGDLNERLARLGLA
# chain 2: MKLIDTTIAVDHLRGEPAAAVLLAELINNGEEIAASELVRFELLAGVRESELAALEAFFSAVVWTLVTEDIARIGGRLARRYRSSHRGIDDVDYLIAATAIVVDADLLTTNVRHFPMFPDLQPPY
# notes: VapB19 antitoxin of Mycobacterium tuberculosis, gene Rv2547; as m3; VapC19 toxin of Mycobacterium tuberculosis, gene Rv2548; as m4; also called Rv2547/Rv2548
# B3: VapBC29 heterodimer (complex)
# chain 1: T1 sequence 1
# chain 2: T1 sequence 2
# notes: VapB29 antitoxin of Mycobacterium tuberculosis, gene Rv0616a; as m7; VapC29 toxin of Mycobacterium tuberculosis, gene Rv0617; as m8; also called Rv0616a/Rv0617
# B4: VapBC1 heterodimer (complex)
# chain 1: MATIQVRDLPEDVAETYRRRATAAGQSLQTYMRTKLIEGVRGRDKAEAIEILEQALASTASPGISRETIEASRRELRGG
# chain 2: MDECVVDAAAVVDALAGKGASAIVLRGLLKESISNAPHLLDAEVGHALRRAVLSDEISEEQARAALDALPYLIDNRYPHSPRLIEYTWQLRHNVTFYDALYVALATALDVPLLTGDSRLAAAPGLPCEIKLVR
# notes: VapB1 antitoxin of Mycobacterium tuberculosis, gene Rv0064a; as m1; VapC1 toxin of Mycobacterium tuberculosis, gene Rv0065; as m2; also called Rv0064a/Rv0065
# B5: Oligo 5 Bind 3 (Mut. 3) (dsDNA)
# DNA 1: GGTGAGCGTCGGCGCGAAAAAAACGATGCAGCGATGTTAGGATGAGGCGG
# DNA 2: CCGCCTCATCCTAACATCGCTGCATCGTTTTTTTCGCGCCGACGCTCACC
# B6: Oligo 5 Bind 5 (Mut. 5) (dsDNA)
# DNA 1: GGTGAGCGTCGGCGCGCGCATCACGATGCAAAAAAATTAGGATGAGGCGG
# DNA 2: CCGCCTCATCCTAATTTTTTTGCATCGTGATGCGCGCGCCGACGCTCACC
# Target: the molecule itself
# Assay: SEC
# Conditions: not given
row,Binder,stoichiometry N
1,B1,4.9 VapBC heterodimers per complex
2,B2,3.61 VapBC heterodimers per complex
3,B3,5 VapBC heterodimers per complex
4,B4,5.6 VapBC heterodimers per complex

# Target: T1, VapB29;VapC29
# Assay: EMSA
# Conditions: protein: recombinant;recombinant; tags: ;C-terminal His; label: 3' DIG-ddUTP; blunt
row,Binder,binding result
1,B5,no binding
2,B6,no binding
